Data taken from patent US20030236190A1 (published 2003).
Starred links: 1 amine or outer side, 2 acyl side, 3 side chain; linkers in the order of their positions; H or OH if unused. Positions of bridges follow the written chain, without caps; N, C: chain ends. Non-standard residues stand in square brackets, D forms with d. Primed or numbered codes have the meaning given here. Chains are numbered I, II in the order given. No end group written: not given here. Lig′ = lysine with a 2-aminohydroxyacetyl group (CO-CH2-O-NH2) on the side-chain amino group, O=C(CON[*:3])NCCCC[C@H](N[*:1])C(=O)[*:2]; Hyp = O=C(O)[C@@H]1C[C@@H](O)CN1; Tic = O=C(O)[C@@H]1Cc2ccccc2CN1; Cha = N[C@@H](CC1CCCCC1)C(=O)O; linker 14 = not defined here; Ac6c = NC1(C(=O)O)CCCCC1; Aic′ = not defined here; Aib = CC(C)(N)C(=O)O

biological target: T1, human insulin receptor (HIR) (human, UniProt P06213 28-1382, limits assumed); test: 125I-insulin displacement, solubilised HIR
T1 construct: Detergent-solubilised receptor; The natural receptor is an alpha2-beta2 heterotetramer cleaved from one precursor

Binder	Kd
FHENFYDWFVRQASKK [S106]	420 nM
FHENFYDWFVAQVSKK [S108]	750 nM
FAENFYDWFVRQVSKK [S112]	610 nM
EFHENFYDWFVRQVSEE [S115]	650 nM
HETFYSMIRSLAK [S117]	2700 nM
SDGFYNAIELLS [S118]	2400 nM
SLNFYDALQLLAKK [S119]	1800 nM
NSFYEALRMLSSK [S121]	3100 nM
HPSTNQMLMKLFK [S123]	16000 nM
HPPLSELKLFLIKK [S124]	23000 nM
FHENFYDWFVRQVSK (also called D117/H2C) [S158]	810 nM
S169 (N-terminal Lig coupled to linker 12, dimer, N-N) peptide 1: XFHENFYDWFVRQVSKK peptide 2: XFHENFYDWFVRQVSKK	580 nM
S170 (bridge I:1-II:1; also: homodimer, N-N, linked at cysteines, type of link not given here, dimer, N-N; also called 3170 (so in the source)) peptide 1: CGFHENFYDWFVRQVSKK peptide 2: CGFHENFYDWFVRQVSKK	700 nM
CGFHENFYDWFVRQVSKK (also called 3171 (so in the source)) [S171]	2900 nM
S172 (N-terminal Lig coupled to linker 14, dimer, N-N) peptide 1: XFHENFYDWFVRQVSKK peptide 2: XFHENFYDWFVRQVSKK	4800 nM
PLAELWAYFEHSEQGRSSAH [S174]	16000 nM
NGVERAGTGDNFYDWFVAQLH [S176]	470 nM
EHWNTVDPFYFTLFEWLRESG [S177]	2700 nM
EHWNTVDPFYQYFSELLRESG [S178]	130 nM
S218 (linker I:10-II:10 via linker 14; not fully specified; reading uncertain, dimer, C-C) peptide 1: AFYDWFAKK[Lig′] peptide 2: AFYDWFAKK[Lig′]	11000 nM
S229 (not fully specified; C-terminal Lig′ coupled to linker 12, heterodimer F2-F4, C-C) peptide 1: SDGFYNAIELLSX peptide 2: KHLCVLEELFWGASLFGYCSGKKX	44 nM
S231 (not fully specified; C-terminal Lig′ coupled to linker 14, dimer, C-C) peptide 1: FHENFYDWFVRQVSKKGGGX peptide 2: FHENFYDWFVRQVSKKGGGX	270 nM

Binder	Kd
VDWLQRNANFYDWFVAELG [S235]	53 nM
DWLQRNANFYDWFVAELG [S236]	100 nM
LQRNANFYDWFVAELG [S238]	850 nM
ANFYDWFVAELG [S242]	2000 nM
GRVDWLQRNANFYDWFVAEL [S248]	63 nM
GRVDWLQRNANFYDWFVAE [S249]	740 nM
GRVDWLQRNANFYDWFV [S251]	5600 nM
S255 (not fully specified; C-terminal Lig′ coupled to linker 14, dimer, C-C) peptide 1: SDGFYNAIELLSGGGX peptide 2: SDGFYNAIELLSGGGX	1600 nM
LDRQFYRYFQDLLVGFM [S260]	2300 nM
PLCFLQELFGGASLGGYCSG [S262]	19000 nM
IQGWEPFYGWFDDVVAQMFEE [S264]	190 nM
DLRVLCELFGGAYVLGYCSE [S281]	11000 nM
WLEHEWAQIQCELYGRGCTY [S285]	830 nM
QAPSNFYDWFVREWDEE [S287]	5900 nM
S292 (not fully specified; N-terminal Lig′ coupled to linker 12, dimer, N-N) peptide 1: XGGGFHENFYDWFVRQVSKK peptide 2: XGGGFHENFYDWFVRQVSKK	750 nM
S293 (not fully specified; N-terminal Lig′ coupled to linker 13, dimer, N-N) peptide 1: XGGGFHENFYDWFVRQVSKK peptide 2: XGGGFHENFYDWFVRQVSKK	120 nM
DWLQRNANFYDWFVAELX (C-terminal Lig′) [S294]	130 nM
SGPFYEE[Ac6c]ELLW[Aib]G (printed: SGPFYEE-Acy-ELLW-Aib-G) [S303]	5700 nM
GGSFYDD[Ac6c]E[Aib]LW[Aib]G (printed: GGSFYDD-Acy-E-Aib-LW-Aib-G) [S304]	21000 nM
N[Aib]PFYDE[Ac6c]DE[Cha]W[Aib]G (printed: N-Aib-PFYDE-Acy-DE-Cha-W-Aib-G) [S305]	840 nM
GRVDWLQRNANFYDWFVAE[Ac6c]G [S306]	2200 nM
D[Aic′]D[Aib]EFYDWFDE[dI]P[dQ] [S319]	870 nM

Further lines, results first:

Kd	Binder
310 nM	FHENFYDWFVRQVAKK [S105]
1000 nM	FHENFYDWFVRAVSKK [S107]
590 nM	AHENFYDWFVRQVSKK [S113]
2000 nM	HDPFYSMMKSLLK [S120]
9300 nM	HPTSKEIYAKLLK [S122]
2900 nM	SSNFYQALMLLS [S129]
3800 nM	AAAAFYDWFAAAAAKK [S168]
540 nM	QSDSGTVHDRFYGWFRDTWAS [S179]
1600 nM	QLEEEWAGVQCEVYGRECPS [S226]
260 nM	S233 (not fully specified; C-terminal Lig′ coupled to linker 14, heterodimer F1-F2, C-C) peptide 1: FHENFYDWFVRQVSKKX peptide 2: SDGFYNAIELLSX
130 nM	RVDWLQRNANFYDWFVAELG [S234]
850 nM	WLQRNANFYDWFVAELG [S237]
1600 nM	NANFYDWFVAELG [S241]
2000 nM	NFYDWFVAELG [S243]
8900 nM	GRVDWLQRNANFYDWFVA [S250]
9000 nM	[Ac6c]CLEEWGASL[Tic]QCSG (cysteine pairing not given here) [S256]
14000 nM	RWPNFYGYFESLLTHFS [S257]
110 nM	TGHRLGLDEQFYWWFRDALSG [S265]
450 nM	RD[Hyp]FYDWFDD[dI] (printed: RD-Hyp-FYDWFDDi) [S268]
4300 nM	QSFYDYIEELLGGEWKK [S288]
900 nM	S290 (not fully specified; N-terminal Lig′ coupled to linker 7, dimer, N-N) peptide 1: XGGGFHENFYDWFVRQVSKK peptide 2: XGGGFHENFYDWFVRQVSKK
640 nM	S301 (N-terminal Lig′ coupled to linker 14, dimer, N-N) peptide 1: XDWLQRNANFYDWFVAEL peptide 2: XDWLQRNANFYDWFVAEL
860 nM	SDGFYNA[Ac6c]ELLSG (printed: SDGFYNA-Acy-ELLSG) [S302]
7000 nM	WQGYAWLS [S316]
